Laboratory results from US20230057987A1 (published 2023).
Values joined by “and” are separate entries in the source; they are usually repeats but may differ in a detail not shown here. Equal values may be shown once. Each block holds one binder with its values, some of them ahead of it.

Key:
[1] = biological target: T1, CT45-IP alanine variant, position 4 peptide on HLA-A*02:01 (human); assay: killing
T1 peptide: KIFAMLEGV

[2] = biological target: T2, similar peptide SP-05-0010, source protein not stated peptide on HLA-A*02:01 (human); assay: killing
T2 peptide: RIFETVNSV

[3] = biological target: T3, CT45-IP alanine variant, position 3 peptide on HLA-A*02:01 (human); assay: killing
T3 peptide: KIAEMLEGV

[4] = biological target: T4, similar peptide SP-05-0001, source protein not stated peptide on HLA-A*02:01 (human); assay: killing
T4 peptide: HIMEHLEGV

[5] = biological target: T5, similar peptide SP-05-0002, source protein not stated peptide on HLA-A*02:01 (human); assay: killing
T5 peptide: KIFSGLLKV

[6] = biological target: T6, CT45-IP alanine variant, position 8 peptide on HLA-A*02:01 (human); assay: killing
T6 peptide: KIFEMLEAV

[7] = biological target: T7, similar peptide SP-05-0009, source protein not stated peptide on HLA-A*02:01 (human); assay: killing
T7 peptide: KIIDLLPKV

[8] = biological target: T8, CT45-IP alanine variant, position 1 peptide on HLA-A*02:01 (human); assay: killing
T8 peptide: AIFEMLEGV

[9] = biological target: T9, similar peptide SP-05-0007, source protein not stated peptide on HLA-A*02:01 (human); assay: killing
T9 peptide: KIFPALCTV

[10] = biological target: T10, similar peptide SP-05-0006, source protein not stated peptide on HLA-A*02:01 (human); assay: killing
T10 peptide: KIAELLENV

[11] = biological target: T11, similar peptide SP-05-0008, source protein not stated peptide on HLA-A*02:01 (human); assay: killing
T11 peptide: KILDELEKV

[12] = biological target: T12, similar peptide SP-05-0003, source protein not stated peptide on HLA-A*02:01 (human); assay: killing
T12 peptide: KVTEMLVNV

[13] = biological target: T13, similar peptide SP-05-0004, source protein not stated peptide on HLA-A*02:01 (human); assay: killing
T13 peptide: KIWEWLVGV

[14] = biological target: T14, similar peptide SP-05-0005, source protein not stated peptide on HLA-A*02:01 (human); assay: killing
T14 peptide: KIEEFLEAV

[15] = biological target: T15, CT45 (CT45A1, A2, A3, A5 to A10); CT45-IP peptide on HLA-A*02:01 (human); assay: CT45-IP-HLA-A*02 dextramer on T cells with TCR mRNA; TCR found by tetramer sorting; full-length, on cells
T15 peptide: KIFEMLEGV

[16] = biological target: CT45-IP-HLA-A*02 dextramer (human); assay: flow cytometry, dextramer staining of TCR-mRNA electroporated T cells, gated on CD3+
[17] = biological target: T15, CT45 (CT45A1, A2, A3, A5 to A10); …; assay: luciferase release, 24 h, 1:1; CD8+ T cells with TCR mRNA, T2 cells with titrated peptide; full-length, on cells
[18] = biological target: CT45-IP antigenic peptide (…) in complex with HLA-A*02 presented on cells (peptide-loaded T2 cells; NCIH1703 and A375 tumor cells) (human); assay: cell-based or functional assay
[19] = biological target: T16, CT45-IP alanine variant, position 7 peptide on HLA-A*02:01 (human); assay: killing
T16 peptide: KIFEMLAGV

[20] = biological target: T17, CT45-IP alanine variant, position 5 peptide on HLA-A*02:01 (human); assay: killing
T17 peptide: KIFEALEGV

B1: TCR-10 (TCR, V domains shown)
Valpha: QNIDQPTEMTATEGAIVQINCTYQTSGFNGLFWYQQHAGEAPTFLSYNVLDGLEEKGRFSSFLSRSKGYSYLLLKELQMKDSASYLCAVPAPYTGTASKLTFGTGTRLQVTL
Vbeta: GVTQTPKFQVLKTGQSMTLQCAQDMNHNSMYWYRQDPGMGLRLIYYSASEGTTDKGEVPNGYNVSRLNKREFSLRLESAAPSQTSVYFCASSEGYSTYNEQFFGPGTRLTVL
- binding result [1]: recognises
- binding result [2]: no recognition
- binding result [3]: recognises
- binding result [4]: no recognition
- binding result [5]: no recognition
- binding result [6]: recognises
- binding result [7]: no recognition
- binding result [8]: recognises
- binding result [9]: no recognition
- binding result [10]: no recognition
- binding result [11]: no recognition
- binding result [12]: no recognition
- binding result [13]: no recognition
- binding result [14]: no recognition
- dextramer-positive events [15]: 52.8%
- surface expression, % positive events by CT45-IP-HLA-A2*02 dextramer staining [16]: 52.8%
- EC50 of peptide [17]: 8.75 nM
- EC50, half maximal killing capacity (functional avidity; CT45-IP peptide titration on T2 cells, luciferase release) [18]: 8.75 nM

B2: TCR-6 (TCR, V domains shown)
Valpha: QKEVEQDPGPLSVPEGAIVSLNCTYSNSAFQYFMWYRQYSRKGPELLMYTYSSGNKEDGRFTAQVDKSSKYISLFIRDSQPSDSATYLCAMSGNSGARDYGNNRLAFGKGNQVVVIP
Vbeta: EVTQTPKHLVMGMTNKKSLKCEQHMGHRAMYWYKQKAKKPPELMFVYSYEKLSINESVPSRFSPECPNSSLLNLHLHALQPEDSALYLCASATWEEAGPYNEQFFGPGTRLTVL
- binding result [19]: recognises
- binding result [2]: no recognition
- binding result [4]: no recognition
- binding result [20]: recognises
- binding result [5]: no recognition
- binding result [6]: recognises
- binding result [7]: no recognition
- binding result [9]: no recognition
- binding result [10]: no recognition
- binding result [11]: no recognition
- binding result [12]: no recognition
- binding result [14]: no recognition
- dextramer-positive events [15]: 2.9%
- surface expression, % positive events by CT45-IP-HLA-A2*02 dextramer staining [16]: 2.9%
- EC50 of peptide [17]: 3.25 nM
- EC50, half maximal killing capacity (functional avidity; CT45-IP peptide titration on T2 cells, luciferase release) [18]: 3.25 nM

B3: TCR-7 (TCR, V domains shown)
Valpha: QTVTQSQPEMSVQEAETVTLSCTYDTSESDYYLFWYKQPPSRQMILVIRQEAYKQQNATENRFSVNFQKAAKSFSLKISDSQLGDAAMYFCTFRYGGATNKLIFGTGTLLAVQP
Vbeta: GVIQSPRHLIKEKRETATLKCYPIPRHDTVYWYQQGPGQDPQFLISFYEKMQSDKGSIPDRFSAQQFSDYHSELNMSSLELGDSALYFCASRGGWAETPDTQYFGPGTRLTVL
- binding result [2]: no recognition
- binding result [3]: recognises
- binding result [4]: no recognition
- binding result [20]: recognises
- binding result [5]: no recognition
- binding result [6]: recognises
- binding result [7]: no recognition
- binding result [9]: no recognition
- binding result [10]: no recognition
- binding result [11]: no recognition
- binding result [12]: no recognition
- binding result [13]: no recognition
- binding result [14]: no recognition
- dextramer-positive events [15]: 53.3%
- surface expression, % positive events by CT45-IP-HLA-A2*02 dextramer staining [16]: 53.3%
- EC50 of peptide [17]: 0.48 nM
- EC50, half maximal killing capacity (functional avidity; CT45-IP peptide titration on T2 cells, luciferase release) [18]: 0.48 nM

B4: TCR-12 (TCR, V domains shown)
Valpha: QLLEQSPQFLSIQEGENLTVYCNSSSVFSSLQWYRQEPGEGPVLLVTVVTGGEVKKLKRLTFQFGDARKDSSLHITAAQPGDTGLYLCAGGLSDSYDKVIFGPGTSLSVIP
Vbeta: EVTQTPKHLVMGMTNKKSLKCEQHMGHRAMYWYKQKAKKPPELMFVYSYEKLSINESVPSRFSPECPNSSLLNLHLHALQPEDSALYLCASSQGVGQEYGYTFGSGTRLTVV
- binding result [2]: no recognition
- binding result [4]: no recognition
- binding result [20]: recognises
- binding result [5]: no recognition
- binding result [6]: recognises
- binding result [7]: no recognition
- binding result [8]: recognises
- binding result [9]: no recognition
- binding result [10]: no recognition
- binding result [11]: no recognition
- binding result [12]: no recognition
- binding result [13]: no recognition
- binding result [14]: no recognition
- dextramer-positive events [15]: 20.1%
- surface expression, % positive events by CT45-IP-HLA-A2*02 dextramer staining [16]: 20.1%
- EC50 of peptide [17]: 47.5 nM
- EC50, half maximal killing capacity (functional avidity; CT45-IP peptide titration on T2 cells, luciferase release) [18]: 47.5 nM

Continued, in another order:

- dextramer-positive events [15]: 6.6%
- surface expression, % positive events by CT45-IP-HLA-A2*02 dextramer staining [16]: 0.53% and 6.6%
- EC50 of peptide [17]: 59.5 nM
B5: TCR-11 (TCR, V domains shown)
Valpha: IQVEQSPPDLILQEGANSTLRCNFSDSVNNLQWFHQNPWGQLINLFYIPSGTKQNGRLSATTVATERYSLLYISSSQTTDSGVYFCAVNTGTASKLTFGTGTRLQVTL
Vbeta: GVTQTPKFQVLKTGQSMTLQCAQDMNHNSMYWYRQDPGMGLRLIYYSASEGTTDKGEVPNGYNVSRLNKREFSLRLESAAPSQTSVYFCASSPRGQGRSYEQYFGPGTRLTVT
- binding result [19]: recognises
- binding result [2]: no recognition
- binding result [4]: no recognition
- binding result [5]: no recognition
- binding result [7]: no recognition
- binding result [9]: no recognition
- binding result [10]: no recognition
- binding result [11]: no recognition
- binding result [12]: no recognition
- binding result [13]: no recognition
- binding result [14]: no recognition
- EC50, half maximal killing capacity (functional avidity; CT45-IP peptide titration on T2 cells, luciferase release) [18]: 59.5 nM

- dextramer-positive events [15]: 61.1%
- surface expression, % positive events by CT45-IP-HLA-A2*02 dextramer staining [16]: 55.5% and 61.1%
- EC50 of peptide [17]: 1.32 nM
B6: TCR-5 (TCR, V domains shown)
Valpha: QQLNQSPQSMFIQEGEDVSMNCTSSSIFNTWLWYKQDPGEGPVLLIALYKAGELTSNGRLTAQFGITRKDSFLNISASIPSDVGIYFCAGGYNYGQNFVFGPGTRLSVLP
Vbeta: GVTQTPKHLITATGQRVTLRCSPRSGDLSVYWYQQSLDQGLQFLIQYYNGEERAKGNILERFSAQQFPDLHSELNLSSLELGDSALYFCASSAGLAGGYEQYFGPGTRLTVT
- binding result [1]: recognises
- binding result [2]: no recognition
- binding result [4]: no recognition
- binding result [20]: recognises
- binding result [5]: no recognition
- binding result [7]: no recognition
- binding result [8]: recognises
- binding result [9]: no recognition
- binding result [10]: no recognition
- binding result [11]: no recognition
- binding result [12]: no recognition
- binding result [13]: no recognition
- binding result [14]: no recognition
- EC50, half maximal killing capacity (functional avidity; CT45-IP peptide titration on T2 cells, luciferase release) [18]: 1.32 nM
